From patent US20160024487
Where a chain is given by its changes, count along the chain named.

Legend:
[1] = target: human α-thrombin (FIIa), P00734
[2] = target: T1, Lys(Dnp)-ASTAVVIAGRIVGG-Lys(Abz)
T1 chain: KASTAVVIAGRIVGGK

[3] = target: T2, Lys(Dnp)-ATLDPRIVGG-Lys(Abz)
T2 chain: KATLDPRIVGGK

[4] = target: T3, Lys(Dnp)-ATNATDIPRIVGG-Lys(Abz)
T3 chain: KATNATDIPRIVGGK

[5] = target: T4, Lys(Dnp)-ATNATDKPRIVGG-Lys(Abz)
T4 chain: KATNATDKPRIVGGK

[6] = target: T5, Lys(Dnp)-ATNATDPPRIVGG-Lys(Abz)
T5 chain: KATNATDPPRIVGGK

[7] = target: T6, Lys(Dnp)-ATNATDSPRIVGG-Lys(Abz)
T6 chain: KATNATDSPRIVGGK

[8] = target: T7, Lys(Dnp)-ATNATDWPRIVGG-Lys(Abz)
T7 chain: KATNATDWPRIVGGK

[9] = target: T8, Lys(Dnp)-ATNATENPRIVGG-Lys(Abz)
T8 chain: KATNATENPRIVGGK

[10] = target: T9, Lys(Dnp)-ATNATKPPRIVGG-Lys(Abz)
T9 chain: KATNATKPPRIVGGK

[11] = target: T10, Lys(Dnp)-ATNATLPPRIVGG-Lys(Abz)
T10 chain: KATNATLPPRIVGGK

[12] = target: T11, Lys(Dnp)-ATNATNDPRIVGG-Lys(Abz)
T11 chain: KATNATNDPRIVGGK

[13] = target: T12, Lys(Dnp)-ATNATNPPRIVGG-Lys(Abz)
T12 chain: KATNATNPPRIVGGK

[14] = target: T13, Lys(Dnp)-ATNATQPPRIVGG-Lys(Abz)
T13 chain: KATNATQPPRIVGGK

[15] = target: T14, Lys(Dnp)-ATNATRQPRIVGG-Lys(Abz)
T14 chain: KATNATRQPRIVGGK

[16] = target: T15, Lys(Dnp)-DFLAEGGGPRIVGG-Lys(Abz)
T15 chain: KDFLAEGGGPRIVGGK

[17] = target: T16, Lys(Dnp)-DFLAEGGGVRIVGG-Lys(Abz)
T16 chain: KDFLAEGGGVRIVGGK

[18] = target: T17, Lys(Dnp)-DNEEGFFSARIVGG-Lys(Abz)
T17 chain: KDNEEGFFSARIVGGK

[19] = target: T18, Lys(Dnp)-DQVTVAMTPRIVGG-Lys(Abz)
T18 chain: KDQVTVAMTPRIVGGK

[20] = target: T19, Lys(Dnp)-EDQEDQVDPRIVGG-Lys(Abz)
T19 chain: KEDQEDQVDPRIVGGK

[21] = target: T20, Lys(Dnp)-EDSDRAIEGRIVGG-Lys(Abz)
T20 chain: KEDSDRAIEGRIVGGK

[22] = target: T21, Lys(Dnp)-HTHHAPLSPRIVGG-Lys(Abz)
T21 chain: KHTHHAPLSPRIVGGK

[23] = target: T22, Lys(Dnp)-LSKNNAIEPRIVGG-Lys(Abz)
T22 chain: KLSKNNAIEPRIVGGK

[24] = target: T23, Lys(Dnp)-NESTTKIKPRIVGG-Lys(Abz)
T23 chain: KNESTTKIKPRIVGGK

[25] = target: T24, Lys(Dnp)-NLAKPTLPIKIVGG-Lys(Abz)
T24 chain: KNLAKPTLPIKIVGGK

[26] = target: T25, Lys(Dnp)-NRLAAALGIRIVGG-Lys(Abz)
T25 chain: KNRLAAALGIRIVGGK

[27] = target: T26, Lys(Dnp)-PDNIAAWYLRIVGG-Lys(Abz)
T26 chain: KPDNIAAWYLRIVGGK

[28] = target: T27, Lys(Dnp)-QISNDTVSPRIVGG-Lys(Abz)
T27 chain: KQISNDTVSPRIVGGK

[29] = target: T28, Lys(Dnp)-RGDSVVYGLRIVGG-Lys(Abz)
T28 chain: KRGDSVVYGLRIVGGK

[30] = target: T29, Lys(Dnp)-SEYQTFFNPRIVGG-Lys(Abz)
T29 chain: KSEYQTFFNPRIVGGK

[31] = target: T30, Lys(Dnp)-STPSILPAPRIVGG-Lys(Abz)
T30 chain: KSTPSILPAPRIVGGK

[32] = target: T31, Lys(Dnp)-TNATLDPRIVGG-Lys(Abz)
T31 chain: KTNATLDPRIVGGK

[33] = target: T32, Lys(Dnp)-TVELQGVVPRIVGG-Lys(Abz)
T32 chain: KTVELQGVVPRIVGGK

[34] = target: T33, Lys(Dnp)-YDEDENQSPRIVGG-Lys(Abz)
T33 chain: KYDEDENQSPRIVGGK

B1: FX [191-194]>[NATLMPR]-HPC4 (protein)
chain: ANSFLEEMKKGHLERECMEETCSYEEAREVFEDSDKTNEFWNKYKDGDQCETSPCQNQGKCKDGLGEYTCTCLEGFEGKNCELFTRKLCSLDNGDCDQFCHEEQNSVVCSCARGYTLADNGKACIPTGPYPCGKQTLERRKRSVAQATSSSGEAPDSITWKPYDAADLDPTENPFDLLDFNQTQPERGDNNATLMPRIVGGQECKDGECPWQALLINEENEGFCGGTILSEFYILTAAHCLYQAKRFKVRVGDRNTEQEEGGEAVHEVEVVIKHNRFTKETYDFDIAVLRLKTPITFRMNVAPACLPERDWAESTLMTQKTGIVSGFGRTHEKGRQSTRLKMLEVPYVDRNSCKLSSSFIITQNMFCAGYDTKQEDACQGDSGGPHVTRFKDTYFVTGIVSWGEGCARKGKYGIYTKVTAFLKWIDRSMKTRGLPKAKSHAPEVITSSPLKDQVDPRLIDGK
For B1, the kcat/KM [1] was “No Activity”.

B2: FX [191-194]>[NATLEPR]-HPC4 (protein)
chain: B1 chain with M195E
In the case of B2, the kcat/KM [1] is reported as “No Activity”.

B3: FX [191-194]>[NATMMPR]-HPC4 (protein)
chain: B1 chain with L194M
B3 was tested, and the kcat/KM [1] was “No Activity”.

B4: FX [191-194]>[NATIKPR]-HPC4 (protein)
chain: B1 chain with L194I, M195K
With B4 the kcat/KM [1] was “No Activity”.

B5: FX [191-194]>[NATDTPR]-HPC4 (protein)
chain: B1 chain with L194D, M195T
For B5, the kcat/KM [1] was “No Activity”.

B6: FX [191-194]>[NATLRPR]-HPC4 (protein)
chain: B1 chain with M195R
With B6 the kcat/KM [1] was “No Activity”.

B7: FX [191-194]>[NATIRPR]-HPC4 (protein)
chain: B1 chain with L194I, M195R
With B7 the kcat/KM [1] was “No Activity”.

B8: Human plasma purified Factor Xa (Molecular Innovations, Inc) (protein)
chain 1: ANSFLEEMKKGHLERECMEETCSYEEAREVFEDSDKTNEFWNKYKDGDQCETSPCQNQGKCKDGLGEYTCTCLEGFEGKNCELFTRKLCSLDNGDCDQFCHEEQNSVVCSCARGYTLADNGKACIPTGPYPCGKQTLERRKR
chain 2: IVGGQECKDGECPWQALLINEENEGFCGGTILSEFYILTAAHCLYQAKRFKVRVGDRNTEQEEGGEAVHEVEVVIKHNRFTKETYDFDIAVLRLKTPITFRMNVAPACLPERDWAESTLMTQKTGIVSGFGRTHEKGRQSTRLKMLEVPYVDRNSCKLSSSFIITQNMFCAGYDTKQEDACQGDSGGPHVTRFKDTYFVTGIVSWGEGCARKGKYGIYTKVTAFLKWIDRSMKTRGLPKAKSHAPEVITSSPLK
Protein B8 has an FXa kcat/KM [2] of 2.1 M⁻¹ s⁻¹, an FXa kcat/KM [3] of 940 M⁻¹ s⁻¹ and an FXa kcat/KM [4] of 41 M⁻¹ s⁻¹. It also gave an FXa kcat/KM [5] of 11 M⁻¹ s⁻¹, an FXa kcat/KM [6] of 1.6 M⁻¹ s⁻¹ and an FXa kcat/KM [7] of 4.4 M⁻¹ s⁻¹. The FXa kcat/KM [8] was 7.2 M⁻¹ s⁻¹, the FXa kcat/KM [9] was 3.3 M⁻¹ s⁻¹ and the FXa kcat/KM [10] was 8.7 M⁻¹ s⁻¹. It also gave an FXa kcat/KM [11] of 1.6 M⁻¹ s⁻¹, an FXa kcat/KM [12] of 30 M⁻¹ s⁻¹ and an FXa kcat/KM [13] of 2.9 M⁻¹ s⁻¹. It also gave an FXa kcat/KM [14] of 9.5 M⁻¹ s⁻¹, an FXa kcat/KM [15] of 4500 M⁻¹ s⁻¹ and an FXa kcat/KM [16] of 5.8 M⁻¹ s⁻¹. The FXa kcat/KM [17] was 3.4 M⁻¹ s⁻¹, the FXa kcat/KM [18] was 230 M⁻¹ s⁻¹ and the FXa kcat/KM [19] was 470 M⁻¹ s⁻¹. It also gave an FXa kcat/KM [20] of 13 M⁻¹ s⁻¹, an FXa kcat/KM [21] of 1900 M⁻¹ s⁻¹ and an FXa kcat/KM [22] of 100 M⁻¹ s⁻¹. It also gave an FXa kcat/KM [23] of 1000 M⁻¹ s⁻¹, an FXa kcat/KM [24] of 36 M⁻¹ s⁻¹ and an FXa kcat/KM [25] of 3 M⁻¹ s⁻¹. For the same protein, the FXa kcat/KM [26] was 350 M⁻¹ s⁻¹, the FXa kcat/KM [27] was 15 M⁻¹ s⁻¹ and the FXa kcat/KM [28] was 340 M⁻¹ s⁻¹. For the same protein, the FXa kcat/KM [29] was 1.7 M⁻¹ s⁻¹, the FXa kcat/KM [30] was 140 M⁻¹ s⁻¹ and the FXa kcat/KM [31] was 230 M⁻¹ s⁻¹. The FXa kcat/KM [32] was 860 M⁻¹ s⁻¹, the FXa kcat/KM [33] was 100 M⁻¹ s⁻¹ and the FXa kcat/KM [34] was 320 M⁻¹ s⁻¹.
